We go through three molecules from patent publication US6653088 (AVENTIS PHARMA S A, dated 2003).

Sequences and labels used below:
B3: S-tag-PS2Nt (recombinant PS2NT protein produced in bacterium) (other, not shown: small tags and cut ends)
chain: MLTFMASDSEEEVCDERTSLMSAESPTPRSCQEGRQGPEDGENTAQWRSQENEEDGEEDPDRYVCSGVPGRPPGLEEELTLKYGAKH
notes: also called unlabelled PS2NT

In one assay the target is T1, presenilin 2 (PS2) (human, UniProt P49810 1-448).
T1 construct: whole, on cells; Full-length membrane protein; complexes formed in transfected COS cells and were analysed in detergent lysates; also called complete PS2; STM2
The experiment in a line: co-immunoprecipitation from cotransfected COS cells, detection with αCT43.

In assay [1] the target is B3. Put plainly: 96-well plate test (ELISA type), peptide on plastic, S-tag detection. The procedure:
The plates are rinsed twice with PBS and the non-specific immobilization sites are saturated by incubation with 5% (w/v) of bovine serum albumin in PBS. […] The detection of the signal is carried out in a spectrophotometer at 450 nm.
The Aβ peptide (Aβ40 or Aβ42) is immobilized by incubation on plastic 96-well plates.
(An ELISA detects its analyte on a solid surface through an enzyme-linked reagent.)

The target in a further assay is T2, biot-3K-Aβ42RR (UniProt P05067 672-713, biotin at the N-terminal end).
T2 construct: domain: Aβ1-42; also called biot-Aβ42; biot-Aβ1-42
Put plainly: HTRF competition; unlabelled PS2NT displaces PS2NT-K from biot-Aβ42.

Protocol for presenilin 2 (PS2): For immunoprecipitation, 100 μg of proteins are diluted in 400 μl of modified RIPA (150 mM NaCl, 50 mM Tris pH 8.0, 1% TRITON X100 v/v, 1% NP40 v/v). Thirty microlitres of protein A Sepharose suspension (0.1% m/v in PBS solution) and 3 μl of antibody are added. The suspensions are gently mixed on a rotating shaker at 4° C. for one night. The protein A Sepharose complex is washed 3 times with 0.5 ml of modified RIPA and once with 0.5 ml of "Wash C" washing buffer (10 mM Tris pH 7.5).

B1: cytoplasmic domain of the APP (MC45F) (other, not shown: small tags and cut ends)
chain: KKQYTSIHHGVVEVDAAVTPEERHLSKMQQNGYENPTYKFFEQMQNDYDDDDK
notes: also called cytoplasmic domain of APP; the 45 last residues of the APP
In the case of B1, the binding result with presenilin 2 (PS2) is recorded as “no binding”.

B2: amyline (peptide, UniProt P10997 34-70, looked up)
peptide: KCNTATCATQRLANFLVHSSNNFGAILSSTNVGSNTY
notes: also called another amyloidogenous peptide
On to B2, for which the binding result in assay [1] is reported as “no binding”.

The IC50 is the point on the concentration scale where inhibition reaches its midpoint. Higher therefore signals lower potency. B3 registered an IC50 in the assay with biot-3K-Aβ42RR of 400 nM. In other words, the sub-micromolar range.
